In US10053497B2, “Therapeutic epitopes and uses thereof” (OXFORD UNIVERSITY INNOVATION LIMITED, priority 2002, dated 2018):

Molecular target: T1, tTG (UniProt P08587)
T1 construct: purchased Sigma T-5398
T1 sequence (P08587 1-690): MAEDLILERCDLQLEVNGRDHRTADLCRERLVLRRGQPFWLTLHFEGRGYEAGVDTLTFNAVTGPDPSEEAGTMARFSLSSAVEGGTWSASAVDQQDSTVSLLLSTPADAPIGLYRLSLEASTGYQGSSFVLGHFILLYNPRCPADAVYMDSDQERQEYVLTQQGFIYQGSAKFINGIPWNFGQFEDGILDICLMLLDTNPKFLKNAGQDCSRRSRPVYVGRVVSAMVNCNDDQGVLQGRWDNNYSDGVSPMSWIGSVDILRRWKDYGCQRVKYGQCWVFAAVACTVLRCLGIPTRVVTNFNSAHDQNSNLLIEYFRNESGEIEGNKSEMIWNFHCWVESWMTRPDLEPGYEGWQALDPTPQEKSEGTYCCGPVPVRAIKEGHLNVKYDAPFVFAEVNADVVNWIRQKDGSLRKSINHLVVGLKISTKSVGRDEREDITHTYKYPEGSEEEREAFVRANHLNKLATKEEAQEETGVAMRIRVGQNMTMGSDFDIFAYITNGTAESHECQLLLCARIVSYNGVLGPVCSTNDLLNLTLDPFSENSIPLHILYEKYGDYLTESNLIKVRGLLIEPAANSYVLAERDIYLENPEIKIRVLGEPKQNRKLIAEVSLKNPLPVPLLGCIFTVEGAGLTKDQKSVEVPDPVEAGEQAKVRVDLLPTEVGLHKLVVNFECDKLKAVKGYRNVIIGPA
Assay: Deamidation of A-gliadin 56-75 by tTG (HPLC, amino acid sequencing)
Assay type: biochemical, guinea pig
Conditions: tTG 50 μg/ml, 37° C., 2 hours
Procedure: A-gliadin 56-75 […] (SEQ ID NO:5) (0.1 μM) was incubated with tTG (50 μg/ml) at 37° C. for 2 hours. A single product was identified and purified by reverse phase HPLC. Amino acid analysis allowed % deamidation (Q→E) of each Gln residue in A-gliadin 56-75 (SEQ ID NO:5) attributable to tTG to be calculated (vertical axis).
Coeliac disease subjects following a gluten free diet, consumed 4 slices of gluten-containing bread (50 g/slice, Sainsbury's “standard white sandwich bread”) daily for 3 or 10 days. EMA was assessed the week before and up to two months after commencing the bread challenge. […] Peptides were assessed in duplicate wells, and Mycobacterium tuberculosis purified protein derivative (PPD RT49) (Serum Institute; Copenhagen, Denmark) (20 μg/ml) was included as a positive control in all assays. […] Digestion of gliadin was verified by SDS-PAGE and protein concentration assessed. α-Chymotrypsin-digested gliadin (640 μg/ml) and synthetic gliadin peptides (15-mers: 160 μg/ml, other peptides: 0.1 mM) were individually treated with tTG (Sigma; T-5398) ([…]) in PBS+CaCl2 1 mM for 2 h at 37° C. […] Deamidation of glutamyl residues was defined as the amount (pmol) of glutamate recovered expressed as a percent of the combined amount of glutamine and glutamate recovered in cycles 2, 4, 8, 10, 15 and 17 of the amino acid sequencing. […]

Sequence: LQLQPFPQPQLPYPQPQSFP [A-gliadin 56-75]
- Glutamine residue deamidated by tTG: Q65 (SEQ ID NO:5) was preferentially deamidated by tTG
